Source: article PMC4687643

How the values were obtained:
[1] = target: GST-Actin binding protein 1 (Abp1) SH3 domain (mouse) (UniProt Q62418)
[2] = target: GST-Cdc42 interacting protein 4 (CIP4) SH3 domain (human) (UniProt Q15642)
[3] = target: GST-Formin Binding Protein 17 (FBP17) SH3 domain (human) (UniProt Q96RU3)
[4] = target: GST-amphiphysin I SH3 domain (human) (UniProt P49418)
[5] = target: GST-amphiphysin II SH3 domain (human) (UniProt O00499)
[6] = target: GST-cortactin SH3 domain (mouse) (UniProt Q60598)
[7] = target: GST-endophilin I SH3 domain (mouse) (UniProt Q62420)
[8] = target: GST-intersectin I SH3A domain (Xenopus laevis)
[9] = target: GST-intersectin I SH3C domain (Xenopus laevis)
[10] = target: GST-intersectin I SH3E domain (Xenopus laevis)
[11] = target: GST-p85 SH3 domain (bovine) (UniProt P23727)
[12] = target: GST-sorting-nexin 9 (SNX9) SH3 domain (human) (UniProt Q9Y5X1)
[13] = target: GST-syndapin I SH3 domain (mouse) (UniProt Q61644)
[14] = target: GST-Actin binding protein 1 (Abp1) SH3 domain (mouse) (UniProt Q62418); remark: listed apart in the source
[15] = target: GST-Cdc42 interacting protein 4 (CIP4) SH3 domain (human) (UniProt Q15642); remark: listed apart in the source
[16] = target: GST-Formin Binding Protein 17 (FBP17) SH3 domain (human) (UniProt Q96RU3); remark: listed apart in the source
[17] = target: GST-amphiphysin I SH3 domain (human) (UniProt P49418); remark: listed apart in the source
[18] = target: GST-amphiphysin II SH3 domain (human) (UniProt O00499); remark: listed apart in the source
[19] = target: GST-cortactin SH3 domain (mouse) (UniProt Q60598); remark: listed apart in the source
[20] = target: GST-endophilin I SH3 domain (mouse) (UniProt Q62420); remark: listed apart in the source
[21] = target: GST-intersectin I SH3C domain (Xenopus laevis); remark: listed apart in the source
[22] = target: GST-intersectin I SH3E domain (Xenopus laevis); remark: listed apart in the source
[23] = target: GST-p85 SH3 domain (bovine) (UniProt P23727); remark: listed apart in the source
[24] = target: GST-syndapin I SH3 domain (mouse) (UniProt Q61644); remark: listed apart in the source

Sequence of GST-endophilin I SH3 domain (mouse) (Q62420 290-349): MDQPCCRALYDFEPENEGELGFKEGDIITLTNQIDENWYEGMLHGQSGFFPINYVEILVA
Sequence of GST-amphiphysin II SH3 domain (human) (O00499 520-593): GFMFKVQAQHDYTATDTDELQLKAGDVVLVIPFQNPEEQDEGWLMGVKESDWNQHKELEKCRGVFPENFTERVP
Sequence of GST-amphiphysin I SH3 domain (human) (P49418 622-695): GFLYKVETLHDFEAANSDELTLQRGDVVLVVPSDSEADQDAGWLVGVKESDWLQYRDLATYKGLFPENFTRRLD
Sequence of GST-syndapin I SH3 domain (mouse) (Q61644 382-441): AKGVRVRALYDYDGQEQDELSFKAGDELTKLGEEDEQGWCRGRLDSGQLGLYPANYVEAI
Sequence of GST-cortactin SH3 domain (mouse) (Q60598 488-546): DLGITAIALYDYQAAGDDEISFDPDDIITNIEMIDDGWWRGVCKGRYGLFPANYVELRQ
Sequence of GST-Actin binding protein 1 (Abp1) SH3 domain (mouse) (Q62418 377-436): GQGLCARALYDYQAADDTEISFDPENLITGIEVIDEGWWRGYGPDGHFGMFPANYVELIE
Sequence of GST-Formin Binding Protein 17 (FBP17) SH3 domain (human) (Q96RU3 550-611): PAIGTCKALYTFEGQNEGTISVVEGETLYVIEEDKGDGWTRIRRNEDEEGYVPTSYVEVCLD
Sequence of GST-Cdc42 interacting protein 4 (CIP4) SH3 domain (human) (Q15642 540-601): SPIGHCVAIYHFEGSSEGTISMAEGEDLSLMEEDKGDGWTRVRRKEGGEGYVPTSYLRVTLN
Sequence of GST-sorting-nexin 9 (SNX9) SH3 domain (human) (Q9Y5X1 1-62): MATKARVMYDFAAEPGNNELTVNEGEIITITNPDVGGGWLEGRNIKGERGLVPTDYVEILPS

| Substance | rate of dynamin GTPase activity stimulated by the GST-SH3 domain (ELIPA, 30 mM NaCl, basal rate subtracted) (μmoles Pi/mg of dyn/min) [1] | rate of dynamin GTPase activity stimulated by the GST-SH3 domain (ELIPA, 30 mM NaCl, basal rate subtracted) (μmoles Pi/mg of dyn/min) [2] | rate of dynamin GTPase activity stimulated by the GST-SH3 domain (ELIPA, 30 mM NaCl, basal rate subtracted) (μmoles Pi/mg of dyn/min) [3] | rate of dynamin GTPase activity stimulated by the GST-SH3 domain (ELIPA, 30 mM NaCl, basal rate subtracted) (μmoles Pi/mg of dyn/min) [4] | rate of dynamin GTPase activity stimulated by the GST-SH3 domain (ELIPA, 30 mM NaCl, basal rate subtracted) (μmoles Pi/mg of dyn/min) [5] | rate of dynamin GTPase activity stimulated by the GST-SH3 domain (ELIPA, 30 mM NaCl, basal rate subtracted) (μmoles Pi/mg of dyn/min) [6] | rate of dynamin GTPase activity stimulated by the GST-SH3 domain (ELIPA, 30 mM NaCl, basal rate subtracted) (μmoles Pi/mg of dyn/min) [7] | rate of dynamin GTPase activity stimulated by the GST-SH3 domain (ELIPA, 30 mM NaCl, basal rate subtracted) (μmoles Pi/mg of dyn/min) [8] | rate of dynamin GTPase activity stimulated by the GST-SH3 domain (ELIPA, 30 mM NaCl, basal rate subtracted) (μmoles Pi/mg of dyn/min) [9] | rate of dynamin GTPase activity stimulated by the GST-SH3 domain (ELIPA, 30 mM NaCl, basal rate subtracted) (μmoles Pi/mg of dyn/min) [10] | rate of dynamin GTPase activity stimulated by the GST-SH3 domain (ELIPA, 30 mM NaCl, basal rate subtracted) (μmoles Pi/mg of dyn/min) [11] | rate of dynamin GTPase activity stimulated by the GST-SH3 domain (ELIPA, 30 mM NaCl, basal rate subtracted) (μmoles Pi/mg of dyn/min) [12] | rate of dynamin GTPase activity stimulated by the GST-SH3 domain (ELIPA, 30 mM NaCl, basal rate subtracted) (μmoles Pi/mg of dyn/min) [13] | dynamin GTPase activity stimulated by the GST-SH3 domain (ELIPA, 150 mM NaCl) (μmoles Pi/mg of dynamin) [14] | dynamin GTPase activity stimulated by the GST-SH3 domain (ELIPA, 150 mM NaCl) (μmoles Pi/mg of dynamin) [15] | dynamin GTPase activity stimulated by the GST-SH3 domain (ELIPA, 150 mM NaCl) (μmoles Pi/mg of dynamin) [16] | dynamin GTPase activity stimulated by the GST-SH3 domain (ELIPA, 150 mM NaCl) (μmoles Pi/mg of dynamin) [17] | dynamin GTPase activity stimulated by the GST-SH3 domain (ELIPA, 150 mM NaCl) (μmoles Pi/mg of dynamin) [18] | dynamin GTPase activity stimulated by the GST-SH3 domain (ELIPA, 150 mM NaCl) (μmoles Pi/mg of dynamin) [19] | dynamin GTPase activity stimulated by the GST-SH3 domain (ELIPA, 150 mM NaCl) (μmoles Pi/mg of dynamin) [20] | also measured |
| --- | --- | --- | --- | --- | --- | --- | --- | --- | --- | --- | --- | --- | --- | --- | --- | --- | --- | --- | --- | --- | --- |
| recombinant human dynamin I middle domain splice variant Iab (enzyme) | 0.011 | 0 | 0.084 | 0.032 | 0.01 | 0.03 | 0.032 | 0.026 | 0 | 0.023 | 0.014 | 0.03 | 0.026 | < 0.03 | < 0.03 | < 0.03 | < 0.03 | < 0.03 | < 0.03 | < 0.03 | dynamin GTPase activity stimulated by the GST-SH3 domain (ELIPA, 150 mM NaCl) (μmoles Pi/mg of dynamin) [21]: < 0.03; dynamin GTPase activity stimulated by the GST-SH3 domain (ELIPA, 150 mM NaCl) (μmoles Pi/mg of dynamin) [22]: < 0.03; dynamin GTPase activity stimulated by the GST-SH3 domain (ELIPA, 150 mM NaCl) (μmoles Pi/mg of dynamin) [23]: < 0.03; dynamin GTPase activity stimulated by the GST-SH3 domain (ELIPA, 150 mM NaCl) (μmoles Pi/mg of dynamin) [24]: < 0.03 |
| recombinant human dynamin I middle domain splice variant Ibb (enzyme) | 0.011 | 0.019 | 0.098 | 0.056 | 0.013 | 0.102 | 0.016 | 0.075 | 0.017 | 0.036 | 0.02 | 0.041 | 0.068 | < 0.03 | < 0.03 | < 0.03 | < 0.03 | < 0.03 | < 0.03 | < 0.03 | dynamin GTPase activity stimulated by the GST-SH3 domain (ELIPA, 150 mM NaCl) (μmoles Pi/mg of dynamin) [21]: < 0.03; dynamin GTPase activity stimulated by the GST-SH3 domain (ELIPA, 150 mM NaCl) (μmoles Pi/mg of dynamin) [22]: < 0.03; dynamin GTPase activity stimulated by the GST-SH3 domain (ELIPA, 150 mM NaCl) (μmoles Pi/mg of dynamin) [23]: < 0.03; dynamin GTPase activity stimulated by the GST-SH3 domain (ELIPA, 150 mM NaCl) (μmoles Pi/mg of dynamin) [24]: < 0.03 |
